Data on one substance can be found in PMC10466327.

The target in the experiment is glutathione S-transferase (GST). Put plainly: cross-linking; GST crosslinked in a crosslinker titration with UCCL or DSSO, two molar ratios of each reagent; crosslinked dimer seen (Figure 2c).

In general, stoichiometry N refers to a count of units in the complex or per binding partner.

With “glutathione S-transferase (GST) (enzyme)”, the stoichiometry N was 2.
